Source: article PMC1851640

Assays:
StpA (Escherichia coli) = target: T1, StpA (Escherichia coli) (UniProt P0ACG1); assay: filter binding
T1 sequence: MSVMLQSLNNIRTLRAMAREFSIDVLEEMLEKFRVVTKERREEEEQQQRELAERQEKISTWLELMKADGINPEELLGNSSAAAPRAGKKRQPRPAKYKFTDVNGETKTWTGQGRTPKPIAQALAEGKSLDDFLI

[1] = system: G126V-StpA (Escherichia coli); assay: filter binding
StpA [2] = target: T2, StpA (Escherichia coli, UniProt P0ACG1 1-134); assay: filter binding
T2 sequence: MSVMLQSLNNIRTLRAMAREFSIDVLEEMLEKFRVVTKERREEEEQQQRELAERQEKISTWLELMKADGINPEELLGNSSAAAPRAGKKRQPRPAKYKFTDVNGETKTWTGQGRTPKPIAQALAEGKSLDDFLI

StpA [3] = target: T2, StpA; assay: FRET
StpA [4] = target: T2, StpA; assay: filter binding; remark: listed apart in the source

sho-sho td pre-mRNA
Kd (StpA (Escherichia coli)): 730 nM | binding signal (StpA (Escherichia coli)): 17 % bound

sho-sho tdC865U pre-mRNA
binding signal [1]: 7 % bound | binding signal (StpA (Escherichia coli)): 27 % bound

td mRNA (intronless)
Kd (StpA (Escherichia coli)): 580 nM

td ribozyme RNA
binding signal (StpA (Escherichia coli)): 70 % bound

AUGUGGAAAAUCUCUAGCAGU (ssRNA) [21R+]
binding result (StpA [2]): binds

B1: 21R+ and duplex- (non-complementary pair) (ssRNA)
RNA 1: AUGUGGAAAAUCUCUAGCAGU
RNA 2: CUUUCAUUGGUCGGUCUCUCC
binding result (StpA [3]): binds

B2: 21R+/21R- duplex (dsRNA)
RNA 1: AUGUGGAAAAUCUCUAGCAGU
RNA 2: ACUGCUAGAGAUUUUCCACAU
binding result (StpA [4]): no binding
